experiment: soluble on expression in E. coli; label from the status in PepcDB or PDB records

Soluble on expression in E. coli, not soluble:
MGSDKIHHHHHHMDMLSFELIRDGNRPLYEQLYQQIRQEIIEGRLAYGTKLPSKRKLGQFLNLSQTTIELAYQQLVAEGYVESVSRKGYFVLAYEELAYVKTTPLPTSQRSNQQPAMRYDFHPSKIDGSSFPFSRWRKHAKDVIDEQHQSLVSLGHPQGDLSLRLEIATYLYHSRGVVCSPEQIIIGSGVEQLLPHIVFLLGKTTTYGIEDPGYHATRLILKSHERSAVPIPVDQNGLVIPSLVQSPVDVMYVTPAHQFPSGSILSVNRRRQLLNWAAASDRRYIIEDDYDSEFRYSGKSIPSLHSMDSERVIYLSTFSKSLMPSLRIGYMVLPRPLLERYQTEFPYYTCSVSRFDQTILTRFMKEGDFEKHLNRMRKIYRRKLDVVVHALRDVPFLKLTGESAGLHVVLSVSNGMGEQELLRRAKDSSIQVYGLSDYAQLPLSTAYPQIVLGFASLTEQQLMQGLTELVTAWQLK
MGSDKIHHHHHHMDPRLLEYYNRELSYLRETGAEFAARHPKVAARLGMQGTDIADPYVERMVEAFSFLTARTQLKIDAEFPRFTQRLLEVVSPNYVTPTPSMSVAQLHPDTEEGDLAKGFTVPRDTAFFSAIPEGESTACQFRSSQDVTLWPLAIEEARLTAAPPDMPALHRYLPANIHVAGALRITLRTFGELTFSQLAGLDRLPFYLCGEERTASHLLELLHTSAIAPLAGIPGHFDGALDVNLQQPVMYEGLEPDQGLLPLAWNVFHGHNLLHEYFACPERFYFFTPTGLSAGLQKIDGGVAEIVILLNRLPPDWLIHQTNAAQFSLFCTPVINLFPRVTARIDVTHSTTEQHLVVDRTHPLDYEVFSVQEVEGLETDTTRKMAFRPLYHTRNNDEGNHGRYFSLRREPRRLSENARRYGTRTPYTGSEVFLSLVDQYEAPYPENLRHITITAMVTNRDLPCLIARNGRDDLTVDAAIPVAGVGLIRPPRSPQPPMAEREMAWRLIRQLSFNYLPLADLDHRTGGQALRDLLNLFIPAHDSPQSRQVRSLIGCKTTPVTRRLPGSGLLVYGRGVSCELTVDEEGFSGISPYLFGLVLEHYIARHVSINTFSQMTLHSMQRGKIMTWPVRAGQRGSV
MGSDKIHHHHHHMDPRSEVLLRQAELFQGPLLIAGAPADDLLGQLPQAQAWTWHAGDQAMLESRFAGRSHYGVEAPEAAFDSAVLFLPKSRELAAYLLNALASRLAGRELYLVGEKRGGIEGAAKQLQAFGKPRKLDSARHCQLWQVTIDQAPQAKPLESLAERFELALEDGPLQVVSLPGVFSHGRLDRGTALLLKHLDGLPGGHMLDFGCGAGVLGATLKRRYPQSRVTLLDVDAFAVAASRLTLAANGLEGEVISGDGIDAAPTELSLILSNPPFHTGVHTNYQASENLLKKSAVHLRKGGEMRLVANSFLRYQPLIEGALGNCQVRDEADGFRIYQATRG
MGSDKIHHHHHHMDQKALSMFAHLSQTLHFGKTALAHHISPSTLSRAIQRLEDEVGGELLHRDNRTVVLTDVGKKFKIYAEQQLEQWHSFKQSLDHKQAALTGKLHIYCSVTAAYSHLPPLLERFRARHPLVEIMLTTGDAADALEQVQNQSVDFAIAAAPENLPRSVYFHHLDTIALTVIAPTMTCKVQQQLSQKVLTWSEIPIILPEHGAARKRFELWYRKKQQGKPTIYATVSGHEALVSMVALGCGVGIVPQVVVDNSPVKDRVSNLENIGDIEPFELGVCCLNQAKAQPLIKAFFSSIV
MGSDKIHHHHHHMDSKHSMISLKQKLSGLLDVIPKQSEIIYADYPLYGNVGDLFIMKGTEAFFKEHGIRVRKRWNPDNFPIGRKLDPNLIIVCQGGGNFGDLYPYYQGFREKIVQTYPNHKIVILPQSIYFQNKDNLKRTAEIFSKHANLHIMTREKASYATAQAYFTTNHIQLLPDMAHQLFPVIPTQQPSNQKLRFIRTDHEANQALQEHAEAESYDWRTVLSASDRRTIAFLQTLNVLNKKAGNPLPIAYIWEKYSDYIVQKAIRFFSRYESVETSRLHGHILSSLLQKENTVIDNSYGKNANYFHTWMEGVPSTRLIQHASKKENLPAHM
MGSDKIHHHHHHMDTFHLMKVYIAVAEEQGFSAASRRLNMSAPTVTRAVAHLEETLKVKLLNRTTRYVRMTEAGARYLEDAKRILHDVKVANEAALGINATPQGKISVTAPVLFGQQFVLPTITDYLVRYPQTQVNAVFLDRVVNLLEEGHDVGIRIGELHDSSMRAKKVGNVRLILVASPEYLAKNGIPKNCQELAQHTLIAANTGSLNPDWQFLVNKKNQTIKINPRLTVTTNQAAINAAKNGLGITRIISYQVAEELKNNKLKILLENFEYPAKPINIVHREDKFSSAKVRSFIDLLAENLQTNSALN
MGSDKIHHHHHHMDYRKIIKEIGRGKNHARDLDLDTARGLYTRMLNGDVPDLEMGSILMALRIKGEGEAEMLGFYEAMQNHTIKLTPPADRPLPVVIPSYNGARKQANLTPLLAILLHKLGFPVVVHGVSEDPTRVLTETIFELMGIIPTLHGGQAQAKLDGRQPVFIPVSALCPPLEKQLAMRWRMGVRNSAHSLAKLATPFAEDAALRLSSVSHPEYVPRVATFFSRIGGRALLMHGTEGEVYANPQRCPQISLIDSRGVQVLHERQSDTYDEPLSLPATKDPEITARWIERCLAGHEPVPQSLKTQMACCLVATGEAATLEDGLARVEQAFSE
MGSDKIHHHHHHMEAEIELKLFFPENKREALVSLLNSLPHSDAKGAIHLTNSYYDTPDLQLRRWDMGLRIRGRDGQFEQTIKTAGTVVGGVHSRPEYNIDIDQAKVNLSLFPTEIWPEGAEIGPVQDALVSLFDTDFTRMSWHIYLDESLVEVALDIGSISANGQCEPICELEFELLAGDAQALLALAERVTEQIPARLGRASKAQRGYRLAAMASPLQLDTLAFIALPKKGTPKQALVTLLETGLDRWQLLEEMLLESRQAARQLPLLGYRLRACIRLLRCTLAQFSLLDDKLLQAFDAIESQLSFVDKGLSLCELLDGDGALLSNLSEPEGLLDAVRHELAALEMPQKIDAMLNHVTYGQLQVRLVSLLMAVNAGQVYISEQQSLQAFADRLQEASWQQIVDLMPSNAELSSEDYQSFAKALDESILVGVAYGELYKHKSRDQFRAPWQDLVLGIRTLGAYHSLRQTAATQGRDIDDWLDSKEQSLLFAMEHSRRSALKVQPYWR
MGSDKIHHHHHHMEDLQRLYPIGIQTFSKIREGNFLYVDKTEYVYRMTHSASSYMFLSRPRRFGKSLLTSTLHSYFSGREELFRGLAMEKLEKEWIQYPVLHFDMSMAKHVDKDKLMNLLDFMLTEHERTLGIDAAGTDPNLRLTNLIKRAYEQTGRKVVVLIDEYDAPLLDVVHERENLGVLRDVMRNFYSPLKACDPYLRYVFLTGITKFSQLSIFSELNNIKNISMDEPYAAICGITENEILTQMKEDVDRMAVKLNITAEEVLAKLKENYDGYHFTYPSPDIYNPFSLLNAFADGKFNSYWFGSGTPTYLIKMLDKFGVEPSEIGNKLAAVEEFDAPTETMSSITPLLYQSGYVTIKDYDKELELYTLDIPNKEVRVGLMRSLLPYYVTNDTREATNMVAFISRDIR
MGSDKIHHHHHHMEEFEGEAIVEAENVVSIMLRREAAERADEILHFSYWSGEIKELDAPGYLDRWQKKCYHATCSLDEGEILLVVGPPGSGKTTFIAEAARKLSEEERVWVTSNTNIAVDNVLEKLERALRIGHPSKITAGVRRHSVEYNLLSGIRFSDYREYASKVAEAYREIARIQNDMIRKGKIVVGSTILKGMMSALKNYDFDTVIIDEASNTCISTALLALEKAEKAVVVGDPYQLPPVYEVGGHKAAKFSAYNFLINIYGKNLWLRRHYRSNAKIAEFAARHVYGFLEIDEKCRRIKIEPCKTTIPEVGDPEKPLVFIDCNGVERREGRSKVNEEEAEVVAMIAEELAECVGEENVGVITPYVKQAELIRGILSEFGVMVEVSTVHSYQGREKDVVIYSITATGNPYFASEKRLFNVALTRARKKFIAVGNSKALEGKNLLLTRFMVAAIKEGGFVRLR
MGSDKIHHHHHHMEEIKEQNNRLFLLLSIMIMEFSNAKTESDILQGLLNLVRKVVDIKEVVLVDENKRKIWGRDIDIKRFEEFIDWSIRQSNPVFVEDELGYVGIVPVVKQDRMFGSLIVLLNHQPSMEETEIFKVLSFLSAVVLENIKLYRELEETYNYVNVILNGLPEGIFVYSNGEIKFQNEKFKEENFPDEVLRKAISLSEEAISLRTQRVGEVISGEEFFSITSIPLILGSEVQALTIVENVTESKELERLKRIDRMKTEFIANISHELRTPLTAIKAYAETIYNSLGELDLSTLKEFLEVIIDQSNHLENLLNELLDFSRLERKSLQINREKVDLCDLVESAVNAIKEFASSHNVNVLFESNVPCPVEAYIDPTRIRQVLLNLLNNGVKYSKKDAPDKYVKVILDEKDGGVLIIVEDNGIGIPDHAKDRIFEQFYRVDSSLTYEVPGTGLGLAITKEIVELHGGRIWVESEVGKGSRFFVWIPKDRAGEDNRQDN
MGSDKIHHHHHHMEEIKFPTNESGLCMNEKGVPWEDLKIVQAIADSGSLAGAGRTLGISHATVFRRLGALESRLGVRLFERHRTGYVPTLAGDDLATTAARVALDIEAVERRLMGRDARLSGTLRVTTTDTLLMGMLSDELAGFQRTYPHIVLEVEVSNRTYDLSRRDADVAIRPTSAPPETLIGRQVGQIAQAVYVSRCHRETSGWVGPDPHLGYPVLERWMARQGVDAQCRYHVDSMLGMLAGVRSGMGRGVLPCYLADMADDLVRASEPLPELQTELWLLTHPDLRNTARVQALFAYLSDSLKARQASLLGTMAAS
MGSDKIHHHHHHMEENKQTLYNDELLDILPDGVIIFNISGEVIQLNRQALTELHVHSSVNAMMPLPTNILFKLLNNKEDILSVILEKIRQGEQTYSLSEHTFMQEQVDYTQFPIRGDFATIKEDGNLKKILFFFRNITVELTQEYILNTALQRTRIYPWYYDINRSEFTLDNRYFEHLGISAGENNTLTMEEYVNMIHPDDRQAMADAFIVQLSGMETFDKSVPFRLHRGDGTWEWFEGQSTYIANISGHPYRLVGICMSIQEYKDIENTLIEARKKAEESDRLKMAFLANMSHEIRTPLNAIVGFSDVIGSTYDELSEEERADFVRLISINSEHLVRLIDDVLDLSKIESNTIKFTFTDCSLRSLMIDVEKEQTMKPISEIEIRALLPNEDVYINTDATRLKQVISNFINNARKFTEKGYIHFGYAVDSVDASSVHVFVEDTGSGIPKECQKEIFDRFYKVDTFKQGTGLGLSICKTIVEHLQGDISVESEMGKGSRFIVTLPFERQTED
MGSDKIHHHHHHMEENYRRYPIGIQNFEQLRNRNCVYVDKTELVYRLANTDSVYFLSRPRRFGKSLLVSTLEAYFQGKKDLFKGLAMERLEKDWNVYPVFHIDFSLTKYTTLFDLQEQLNLFLLRCEKVYGAEKEEKTPAARLQGMIRRAYEQTGLPVVVLIDEYDAPLLDSNSNIPLQQELRNELRKFFSPLKGLGQYLRFLFITGISKFSQMSIFSELNNLKNISMRDDFSAICGITERELLDELRPDIERMALANGETYEAACAHLKRQYDGYHFSKHCEDIYNPFSLFNAFDAKEYKNFWFSTGTPTFLIDLLQETDFDVRQLEGVEATDEQFDAPTERVTSPIPVLYQSGYLTIKGYDPEFQVYRLAYPNGEVRKGFIESLLPAYLELPGQSSTFYVVSFIRDLRKGDIESCLERTRSFFASIPNDLENKTEKHYQTIFYLLFRLMGMYVDSEVKSAVGRADVVIKMQDAIYVLEFKYDGTAREALAQINSRLYAVPYRKDGRRIVKVGINFDSATRTIGDWVIEVEDTVDNL
MGSDKIHHHHHHMEFFSTRNKILSINPNGLRSTSIQLRERIWNVFYKEEYDYYDTLEYTSYTTGIEDMMLEMGIKYEFPANKIYKNQNAEKLHKHVVQCEGMWYRIYDFIEKYLRVTDSEKTQRLTIEFNRILEEEVAPYRILNGLVVPIIGKSELNSIGETIDLEYESVSKHMTKALELYSDRKKPDYENSVKESISSVESMCSIITGLSGGAATLGNTLKKLKENGVNIHPALENAFKQLYGYTSDSGGIRHGSIEFVNVASEDAKYMLVSCSAFVNYLTEKWIKYNLK

Source: the DeepSol protein solubility set
